Read-outs that look alike come from different tables or passages of the source.
Tests used:
[1] = target: Fucα1,6GlcNAc-CD52 (17) (human) (UniProt P31358)
[2] = target: Fucα1,6GlcNAc-CD52 (17) (human) (UniProt P31358); remark: listed apart in the source

Substance | transglycosylation with sialoglycan oxazoline (12), yield of 18 [1] | further results
Endo-F3 D126A mutant (enzyme) | > 90% | 
Endo-F2 (Endoglycosidase-F2), wild type (enzyme) |  | transglycosylation with sialoglycan oxazoline (12), yield of 18 [2]: 25%
Endo-F3 D126Q mutant (enzyme) | > 90% | 
Endo-F3 (Endoglycosidase-F3), wild type (enzyme) |  | transglycosylation with sialoglycan oxazoline (12), isolated yield of 18 [2]: 55%
